Patent US20160060320A1 (UNIVERSITY OF COPENHAGEN, published 2016)
Ends that are not written are not given here.

B1: Neuropeptide Y (NPY; NPY1-36; full-length NPY) (peptide)
peptide: not shown
modifications: Tyr36 amidated

biological target: NCAM on rat hippocampal neurons (rat, UniProt P13596 20-858); test: cell-based or functional assay
Sequence (P13596 20-858): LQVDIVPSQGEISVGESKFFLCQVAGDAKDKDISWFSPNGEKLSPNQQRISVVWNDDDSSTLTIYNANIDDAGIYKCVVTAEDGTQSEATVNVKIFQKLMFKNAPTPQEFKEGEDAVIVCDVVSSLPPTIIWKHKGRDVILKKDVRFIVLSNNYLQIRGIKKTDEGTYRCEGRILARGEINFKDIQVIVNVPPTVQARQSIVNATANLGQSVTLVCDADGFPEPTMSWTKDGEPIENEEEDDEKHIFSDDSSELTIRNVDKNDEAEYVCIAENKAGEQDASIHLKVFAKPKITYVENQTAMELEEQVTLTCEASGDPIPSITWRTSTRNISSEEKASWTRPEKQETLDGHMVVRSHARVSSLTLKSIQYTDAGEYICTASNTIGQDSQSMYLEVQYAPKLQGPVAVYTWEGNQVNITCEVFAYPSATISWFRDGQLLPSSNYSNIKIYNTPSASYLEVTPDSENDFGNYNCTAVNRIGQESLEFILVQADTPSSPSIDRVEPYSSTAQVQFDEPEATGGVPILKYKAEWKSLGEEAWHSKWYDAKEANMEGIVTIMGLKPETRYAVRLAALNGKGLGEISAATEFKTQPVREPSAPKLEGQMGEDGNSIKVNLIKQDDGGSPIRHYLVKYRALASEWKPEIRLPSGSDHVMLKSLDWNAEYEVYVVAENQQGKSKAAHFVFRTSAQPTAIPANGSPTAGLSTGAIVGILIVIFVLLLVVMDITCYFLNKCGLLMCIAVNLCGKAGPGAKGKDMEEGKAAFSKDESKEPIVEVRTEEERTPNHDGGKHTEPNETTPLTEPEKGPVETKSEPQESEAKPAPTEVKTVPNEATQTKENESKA

Binder	Neuritogenic effect, 1 µM NPY fragment (% of control)	Neuritogenic effect, 3 µM NPY fragment (% of control)
ITRQRY-NH2 (also: Tyr36 (pos 6): amidated per mods, acetylation) [NPY31-36]	100 % of control	91.8 % of control
YINLITRQRY-NH2 [NPY27-36]	107 % of control	99.1 % of control
ALRHYINLITRQR [NPY23-35]	96.2 % of control	104 % of control
ALRHYINLITRQRA (ends and bridges not checked) [NPY23-36 ala36]	89.1 % of control	91.7 % of control
YSALRHYINLITRQ [NPY21-34]	87.7 % of control	97.5 % of control
LRHYINLITRQR [NPY24-35]	96.9 % of control	103 % of control
YSALRHYINLITRQRY-NH2 [NPY21-36]	108 % of control	186 % of control
RHYINLITRQRY-NH2 [NPY25-36]	95.9 % of control	96.1 % of control
YPSKPDNPGEDAPAEDMARY [NPY1-20]	97.8 % of control	99.1 % of control
ASALRHYINLITRQR [NPY21-35 ala21]	95.4 % of control	94.1 % of control
PAEDMARYYSALRHYINLITRQR [NPY13-35]	174 % of control	305 % of control
RQRTILNIYHRLASYYRAMDEAPADEGPNDPKS [NPY3-35 reversed sequence]	110 % of control	285 % of control
SALRHYINLITRQR [NPY22-35]	104 % of control	91.4 % of control
B1	166 % of control	180 % of control
YSALRHYINLITRQR [NPY21-35]	154 % of control	233 % of control
ALRHYINLITRQRY-NH2 [NPY23-36]	107 % of control	156 % of control
